Positions count from the first letter of the chain named. Names may count otherwise. “And” between values parts separate entries of the source, which are not always exact repeats. Equal entries are not always repeated.
B1: PR007273 (bispecific antibody, human IgG1, kappa)
heavy: QVQLVESGGGVVQPGMSLRLSCAASGFDFSSYGMYWVRQAPGKGQEWVASIRYTGTEKHYADSVKGRFTISRDNSKNTLYLEMNSLRVEDTAVYYCAKNRAIFGVVPDASDIRGQGTMVTVSSGGGGSQVQLVQSGAEVKKPGASVKVSCKASGYTFAGYYMYWVRQAPGQGLEWMGWINPDSGAPTYAQKFQGRVTMTRDTSISTAYMELSRLRSDDTAVYYCAREKIYYGSGNYYPSFDYWGQGTLVTVSSASTKGPSVFPLAPSSKSTSGGTAALGCLVKDYFPEPVTVSWNSGALTSGVHTFPAVLQSSGLYSLSSVVTVPSSSLGTQTYICNVNHKPSNTKVDKKVEPKSCDKTHTCPPCPAPEAAGAPSVFLFPPKPKDTLMISRTPEVTCVVVDVSHEDPEVKFNWYVDGVEVHNAKTKPREEQYNSTYRVVSVLTVLHQDWLNGKEYKCKVSNKALPAPIEKTISKAKGQPREPQVYTLPPSREEMTKNQVSLTCLVKGFYPSDIAVEWESNGQPENNYKTTPPVLDSDGSFFLYSKLTVDKSRWQQGNVFSCSVMHEALHNHYTQKSLSLSPGK
light: DIQLTQSPSFLSASVGDRVTITCRASQGISSYLAWYQQKPGKAPKLLIYAASTLQSGVPSRFSGSGSGTEFTLTISSLQPEDFATYYCQQLASYPWTFGQGTKVEIKRTVAAPSVFIFPPSDEQLKSGTASVVCLLNNFYPREAKVQWKVDNALQSGNSQESVTEQDSKDSTYSLSSTLTLSKADYEKHKVYACEVTHQGLSSPVTKSFNRGEC
notes: VH of PR006245 (PD-L1) - GS_5 - heavy chain of CD40 IgG PR006495; human IgG1 L234A/L235A/G237A; also called PD-L1×CD40
B2: PR007275 (bispecific antibody, human IgG1, kappa)
heavy: B1 heavy with I102L, V106I
light: B1 light
notes: VH of PR006247 (PD-L1) - GS_5 - heavy chain of CD40 IgG PR006495; human IgG1 L234A/L235A/G237A; also called PD-L1×CD40
B3: PR007619 (bispecific antibody, human IgG1, kappa)
heavy: QVQLVESGGGVVQPGMSLRLSCAASGFDFSSYGMYWVRQAPGKGQEWVASIRYTGTEKHYADSVKGRFTISRDNSKNTLYLEMNSLRVEDTAVYYCAKNRAIFGVIPDDSDIRGQGTMVTVSSGGSQVQLVQSGAEVKKPGASVKVSCKASGYTFAGYYMYWVRQAPGQGLEWMGWINPDSGAPTYAQKFQGRVTMTRDTSISTAYMELSRLRSDDTAVYYCAREKIYYGSGNYYPSFDYWGQGTLVTVSSASTKGPSVFPLAPSSKSTSGGTAALGCLVKDYFPEPVTVSWNSGALTSGVHTFPAVLQSSGLYSLSSVVTVPSSSLGTQTYICNVNHKPSNTKVDKKVEPKSCDKTHTCPPCPAPEAAGAPSVFLFPPKPKDTLMISRTPEVTCVVVDVSHEDPEVKFNWYVDGVEVHNAKTKPREEQYNSTYRVVSVLTVLHQDWLNGKEYKCKVSNKALPAPIEKTISKAKGQPREPQVYTLPPSREEMTKNQVSLTCLVKGFYPSDIAVEWESNGQPENNYKTTPPVLDSDGSFFLYSKLTVDKSRWQQGNVFSCSVMHEALHNHYTQKSLSLSPGK
light: B1 light with A92V
notes: VH of PR006246 (PD-L1) - GS_3 - heavy chain of CD40 IgG PR006504; human IgG1 L234A/L235A/G237A; also called PD-L1×CD40
B4: PR006495 (antibody, human IgG1, kappa, V domains shown)
VH: QVQLVQSGAEVKKPGASVKVSCKASGYTFAGYYMYWVRQAPGQGLEWMGWINPDSGAPTYAQKFQGRVTMTRDTSISTAYMELSRLRSDDTAVYYCAREKIYYGSGNYYPSFDYWGQGTLVTVSS
VL: DIQLTQSPSFLSASVGDRVTITCRASQGISSYLAWYQQKPGKAPKLLIYAASTLQSGVPSRFSGSGSGTEFTLTISSLQPEDFATYYCQQLASYPWTFGQGTKVEIKR
notes: Variant of PR003379, L: N92A; human IgG1 L234A, L235A, G237A
B5: PR006496 (antibody, human IgG1, kappa, V domains shown)
VH: B4 VH
VL: B4 VL with A92F
notes: Variant of PR003379, L: N92F; human IgG1 L234A, L235A, G237A

Columns and labels:
[1] = target: T1, cynomolgus monkey CD40 (cynomolgus monkey); assay: FACS, CHO-K1/cyCD40 cells
T1 construct: whole, on cells; also called cyCD40
How it was run: (§1)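 Cells carrying bound test antibody were kept 1 h at 4° C in the dark, washed in cold PBS, then stained 30 min at 4° C with Alexa Fluor 488 goat anti-human IgG (H+L) (1:1000). Fluorescence signal was read by flow cytometry.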

[2] = target: T2, human PD-L1 (human, UniProt Q9NZQ7 19-290); assay: FACS, CHO-K1/hPD-L1 cells
T2 construct: whole, on cells; also called hPD-L1; CD274
T2 sequence (Q9NZQ7 19-290): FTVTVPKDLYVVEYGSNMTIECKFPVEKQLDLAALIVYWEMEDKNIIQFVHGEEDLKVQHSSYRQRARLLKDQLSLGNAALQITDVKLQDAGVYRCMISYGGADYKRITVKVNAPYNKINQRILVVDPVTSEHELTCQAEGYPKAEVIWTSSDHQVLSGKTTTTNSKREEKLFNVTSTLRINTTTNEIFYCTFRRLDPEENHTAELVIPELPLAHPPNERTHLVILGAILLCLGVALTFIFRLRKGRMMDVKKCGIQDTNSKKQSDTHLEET
How it was run: (§2)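 Binding of antibodies to PD-L1-expressing cells (1×10⁶ cells/mL in PBS/2% BSA), tested in 4-fold dilution series. Incubation 2 h at 4° C in the dark, then washes. Fluorescence read by flow cytometry.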

[3] = target: T3, cynomolgus monkey PD-L1 (cynomolgus monkey); assay: FACS, CHO-K1/cyPD-L1 cells
T3 construct: whole, on cells; also called cyPD-L1
How it was run: as §2

[4] = target: T2, human PD-L1; assay: FACS, NCI-H226 cells
How it was run: as §2

[5] = target: T4, human CD40 (human, UniProt P25942 21-277); assay: FACS, CHO-K1/hCD40 cells
T4 construct: whole, on cells; also called hCD40; TNFRSF5
T4 sequence (P25942 21-277): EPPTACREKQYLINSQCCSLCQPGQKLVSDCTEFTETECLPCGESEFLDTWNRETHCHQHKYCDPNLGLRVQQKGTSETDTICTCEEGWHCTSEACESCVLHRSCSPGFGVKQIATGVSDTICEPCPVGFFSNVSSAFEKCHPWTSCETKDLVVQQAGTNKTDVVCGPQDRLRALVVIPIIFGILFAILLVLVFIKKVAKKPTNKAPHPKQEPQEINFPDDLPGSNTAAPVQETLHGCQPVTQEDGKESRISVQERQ
How it was run: as §1

[6] = target: T4, human CD40; assay: FACS, Raji cells
How it was run: as §1

[7] = target: T4, human CD40; assay: cell-based or functional assay
[8] = target: T2, human PD-L1; assay: cell-based or functional assay
[9] = target: T4, human CD40; assay: cell-based or functional assay; remark: listed apart in the source
[10] = target: T4, human CD40; assay: FACS, Raji cells; remark: listed apart in the source
Method: The cells were incubated at 4° C. for 1 hours in the dark. After the incubation, the cells were rinsed twice by adding pre-chilled PBS at 100 μL/well, and centrifuged at 500 g at 4° C. for 5 minutes, and the supernatant was discarded. Then, a fluorescent secondary antibody (goat anti-human IgG (H+L) secondary antibody, Alexa Fluor® 488 conjugate, Invitrogen, #A11013, 1:1000 dilution) was added at 100 μL/well, and the cells were incubated at 4° C. for 30 minutes in the dark. The cells were washed twice with pre-chilled PBS at 200 μL/well, and centrifuged at 500 g at 4° C. for 5 minutes, and the supernatant was discarded. Finally, the cells were resuspended in pre-chilled PBS at 200 μL/well. The fluorescence signal values were read using a BD FACS CANTOII flow cytometer or ACEA NovoCyte flow cytometer, and the data were processed and analyzed using FlowJo v10 software (FlowJo, LLC).
Data processing and graphical analysis were performed using GraphPad Prism 8 software. The binding curve of the antibody to the target cell and parameters, such as EC₅₀ value were obtained by four-parameter nonlinear fitting.

Row | Binder | EC50 [1] [nM] | Maximum MFI [1] [MFI] | EC50 [2] [nM] | Maximum MFI [2] [MFI] | EC50 [3] [nM] | Maximum MFI [3] [MFI] | EC50 [4] [nM] | Maximum MFI [4] [MFI] | EC50 [5] [nM] | Maximum MFI [5] [MFI] | EC50 [6] [nM] | Maximum MFI [6] [MFI] | EC50, HEK293-hCD40-NFκB reporter, + CHO-K1 [7] [nM] | EC50, HEK293-hCD40-NFκB reporter, + CHO-K1/hPD-L1 [7] [nM] | Maximum (RLU), HEK293-hCD40-NFκB reporter, + CHO-K1 [7] [RLU] | Maximum (RLU), HEK293-hCD40-NFκB reporter, + CHO-K1/hPD-L1 [7] [RLU] | EC50, Jurkat-NFAT-hPD1 reporter [8] | Maximum (RLU), Jurkat-NFAT-hPD1 reporter [8] [RLU] | EC50, HEK293-hCD40-NFκB reporter, crosslinked [9] [nM] | EC50, HEK293-hCD40-NFκB reporter, uncrosslinked [9] [nM] | also measured
1 | B1 | 4.2 | 71300 | 1.39 | 19800 | 0.89 | 4620 | 0.773 | 914 | 2.05 | 14300 | 1.43 | 7580 | 0.238 | 0.0598 | 199000 | 333000 | 0.109 nM | 2520 |  |  | 
2 | B2 | 4.12 | 66000 | 1.29 | 20000 | 0.807 | 4620 | 0.764 | 959 | 2.57 | 14200 | 1.58 | 7650 | 0.213 | 0.0558 | 231000 | 371000 | 0.234 nM | 2840 |  |  | 
3 | B3 | 1.77 | 51300 | 1.02 | 20100 | 0.629 | 4820 | 0.366 | 914 | 2.5 | 17700 | 1.26 | 6790 | 0.334 | 0.0312 | 3880 | 4780 | 0.122 nM and 0.309 nM |  |  |  | 
4 | B4 |  |  |  |  |  |  |  |  |  |  |  |  |  |  |  |  |  |  | 0.109 | 0.905 | Fold (EC50 in the absence of crosslinking/EC50 in the presence of crosslinking) [9]: 8.28 fold; Maximum fold, HEK293-hCD40-NFκB reporter, crosslinked [9]: 5.54 fold; Maximum fold, HEK293-hCD40-NFκB reporter, uncrosslinked [9]: 4.92 fold; EC50 [10]: 0.356 nM; Maximum MFI [10]: 8870 MFI
5 | B5 |  |  |  |  |  |  |  |  |  |  |  |  |  |  |  |  |  |  | 0.217 | 0.43 | Fold (EC50 in the absence of crosslinking/EC50 in the presence of crosslinking) [9]: 1.98 fold; Maximum fold, HEK293-hCD40-NFκB reporter, crosslinked [9]: 5.03 fold; Maximum fold, HEK293-hCD40-NFκB reporter, uncrosslinked [9]: 4.43 fold; EC50 [10]: 0.277 nM; Maximum MFI [10]: 9300 MFI

Source: patent US20250215089A1 (HARBOUR BIOMED SHANGHAI, published 2025)
